Data taken from patent publication US20160228502A1.
Values joined by “and” are separate entries in the source; they are usually repeats but may differ in a detail not shown here. Equal values may be shown once.

What was measured:
SERCA1-CFP (rabbit) [1] = target: SERCA1-CFP (rabbit) (UniProt P04191); assay: AFRET in COS7 cells, SERCA1-CFP as donor
sAnk1-CFP = assay: AFRET in COS7 cells, sAnk1-CFP as donor
[2] = target: sarco(endo)plasmic reticulum Ca^2+-ATPase 1 (SERCA1) (rabbit) (UniProt P04191); assay: coIP with antibodies to SERCA1 from COS7 extracts, with or without FLAG-SLN
[3] = target: sarco(endo)plasmic reticulum Ca^2+-ATPase 1 (SERCA1) (rabbit) (UniProt P04191); assay: amylose resin pull down from COS7 extracts expressing SERCA1, immunoblot densitometry
[4] = target: sarco(endo)plasmic reticulum Ca^2+-ATPase 1 (SERCA1) (rabbit) (UniProt P04191); assay: coIP with antibodies to sAnk1 from COS7 extracts, densitometry
[5] = target: sarco(endo)plasmic reticulum Ca^2+-ATPase 1 (SERCA1) (rabbit) (UniProt P04191); assay: coIP from COS7 extracts, densitometry
[6] = target: sarco(endo)plasmic reticulum Ca^2+-ATPase 1 (SERCA1) (rabbit) (UniProt P04191); assay: coIP with antibodies to SERCA1 from COS7 extracts, densitometry
[7] = target: sarco(endo)plasmic reticulum Ca^2+-ATPase 1 (SERCA1) (rabbit) (UniProt P04191); assay: cell-based or functional assay
SERCA1-CFP (rabbit) [8] = target: SERCA1-CFP (rabbit) (UniProt P04191); assay: AFRET in living COS7 cells
SLN-YFP (rabbit) = SLN-YFP (rabbit) (UniProt P42532); assay: AFRET in COS7 cells
[9] = target: sarco(endo)plasmic reticulum Ca^2+-ATPase 1 (SERCA1) (rabbit) (UniProt P04191); assay: coIP with antibodies to SERCA1 from COS7 extracts, densitometry, with FLAG-SLN coexpressed
SERCA1-CFP (rabbit) [10] = target: SERCA1-CFP (rabbit) (UniProt P04191); assay: AFRET in COS7 cells, FLAG-SLN cotransfected
SERCA1-CFP (rabbit) [11] = target: SERCA1-CFP (rabbit) (UniProt P04191); assay: AFRET in COS7 cells
SERCA1-CFP (rabbit) [12] = target: SERCA1-CFP (rabbit) (UniProt P04191); assay: AFRET (Δr=rCFP-rFRET) in COS7 cells

SERCA1-CFP (rabbit), sequence (P04191 whole entry): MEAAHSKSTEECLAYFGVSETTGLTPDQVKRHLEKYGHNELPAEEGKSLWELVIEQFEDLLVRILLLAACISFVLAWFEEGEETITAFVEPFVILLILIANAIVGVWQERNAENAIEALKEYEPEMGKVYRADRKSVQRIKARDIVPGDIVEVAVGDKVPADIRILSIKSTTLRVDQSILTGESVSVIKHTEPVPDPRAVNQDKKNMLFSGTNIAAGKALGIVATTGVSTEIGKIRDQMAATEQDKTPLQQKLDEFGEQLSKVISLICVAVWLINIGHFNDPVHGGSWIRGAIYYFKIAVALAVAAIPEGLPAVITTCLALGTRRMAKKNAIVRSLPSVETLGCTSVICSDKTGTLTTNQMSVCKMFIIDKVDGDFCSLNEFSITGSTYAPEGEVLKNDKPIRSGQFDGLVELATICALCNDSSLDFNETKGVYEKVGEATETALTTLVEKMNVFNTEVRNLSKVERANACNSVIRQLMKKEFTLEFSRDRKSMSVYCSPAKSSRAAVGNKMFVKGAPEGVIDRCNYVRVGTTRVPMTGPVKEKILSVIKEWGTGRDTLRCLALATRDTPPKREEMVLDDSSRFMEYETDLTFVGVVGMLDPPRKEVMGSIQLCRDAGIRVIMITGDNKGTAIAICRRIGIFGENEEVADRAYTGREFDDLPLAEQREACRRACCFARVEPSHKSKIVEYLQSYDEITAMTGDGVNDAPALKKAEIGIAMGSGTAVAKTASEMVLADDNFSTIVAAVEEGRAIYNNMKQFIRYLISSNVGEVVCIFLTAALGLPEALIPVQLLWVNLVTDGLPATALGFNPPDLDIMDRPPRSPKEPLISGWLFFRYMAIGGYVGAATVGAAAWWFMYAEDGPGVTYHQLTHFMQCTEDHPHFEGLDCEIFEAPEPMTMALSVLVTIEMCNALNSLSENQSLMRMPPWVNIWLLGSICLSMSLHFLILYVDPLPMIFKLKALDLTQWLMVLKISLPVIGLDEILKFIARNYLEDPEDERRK
sarco(endo)plasmic reticulum Ca^2+-ATPase 1 (SERCA1) (rabbit), sequence (P04191 whole entry): as above
SLN-YFP (rabbit), sequence (P42532 whole entry): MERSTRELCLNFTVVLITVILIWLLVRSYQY

dysferlin-YFP
AFRET Δrmean (SERCA1-CFP (rabbit) [1]): -0.035 | AFRET Δrmean (sAnk1-CFP): -0.028

sAnk1 (29-155)-FLAG
fold enhancement of the interaction in the presence of FLAG-SLN [2]: 2.7 fold

sAnk1 (29-155)-MBP fusion protein (from UniProt P0AEX9 27-392)
fold SERCA1 pulled down relative to the MBP control [3]: 9 fold

sAnk1 (all-L)
percent of SERCA1 coimmunoprecipitated compared to WT [4]: 49% | reduction in coIP, normalized to coIP of SERCA1 and sAnk1 (WT) [5]: 50% and 34% to 61% (2×) | percent of sAnk1 (all-L) coimmunoprecipitated compared to WT sAnk1 [6]: 49% | KCa2+ ([Ca^2+] required for half-maximal activation) of SERCA1 Ca^2+-ATPase, COS7 microsomes [7]: 501 nM | KCa2+ in pCa^2+ units, SERCA1 Ca^2+-ATPase, COS7 microsomes [7]: 6.3 pCa^2+ units | Mean Kca (nM), Ca^2+-ATPase assay in COS7 microsomes, FIG. 6D [7]: 502 nM | Mean Kca (pCa), Ca^2+-ATPase assay in COS7 microsomes, FIG. 6D [7]: 6.3 pCa | ΔKCa2+ relative to SERCA1 Alone [7]: -0.02 pCa^2+ units | ΔKCa2+, COS7 microsomes [7]: -0.01 pCa^2+ units

sAnk1 (all-L)-YFP
AFRET Δrmean (SERCA1-CFP (rabbit) [8]): 0.017

sAnk1-CFP
AFRET Δrmean (SLN-YFP (rabbit)): 0.03

sAnk1-FLAG (C-terminal FLAG-tagged sAnk1)
HEK 293 mean Kca (nM), Ca^2+-ATPase assay [7]: 680 nM | HEK 293 mean Kca (pCa), Ca^2+-ATPase assay [7]: 6.17 pCa | KCa2+ ([Ca^2+] required for half-maximal activation) of SERCA1 Ca^2+-ATPase, COS7 microsomes, all assays compiled [7]: 759 nM | KCa2+ in pCa^2+ units, SERCA1 Ca^2+-ATPase, COS7 microsomes, all assays compiled [7]: 6.12 pCa^2+ units | Mean Kca (nM), Ca^2+-ATPase assay in COS7 microsomes, FIG. 6B [7]: 708 nM | Mean Kca (nM), Ca^2+-ATPase assay in COS7 microsomes, FIG. 6D [7]: 794 nM | Mean Kca (pCa), Ca^2+-ATPase assay in COS7 microsomes, FIG. 6B [7]: 6.15 pCa | Mean Kca (pCa), Ca^2+-ATPase assay in COS7 microsomes, FIG. 6D [7]: 6.1 pCa | shift of SERCA1's apparent Ca^2+ affinity, COS7 microsomes [7]: -0.18 pCa^2+ units | ΔKCa2+ in HEK293 microsomes [7]: -0.21 pCa^2+ units | ΔKCa2+ relative to SERCA1 Alone [7]: -0.2 pCa^2+ units | ΔKCa2+, COS7 microsomes, experiment with sAnk1 (all-L) [7]: -0.22 pCa^2+ units | fold increase in coIP with SERCA1 on addition of FLAG-SLN, against co-transfection of SERCA1 and sAnk1 alone [9]: 2.6 fold

sAnk1-YFP
AFRET Δrmean (SERCA1-CFP (rabbit) [8]): 0.043 | AFRET Δrmean (cells cotransfected with FLAG-SLN) (SERCA1-CFP (rabbit) [10]): 0.036 | AFRET Δrmean (SERCA1-CFP (rabbit) [11]): 0.021 | AFRET Δrmean (SERCA1-CFP (rabbit) [12]): 0.026
